According to the nanobody polyreactivity screen of Harvey et al. (2022):

Assay: yeast display, Sf9 membrane polyspecificity reagent, FACS + sequencing; frameworks hold sequencing errors
Outline: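 Using colony PCR, genes from sorted yeast display clones were amplified, then sequenced on MiSeq at 2 × 250 and filtered by CDR length. The clones had been stained with 10% biotinylated, detergent-solubilized Sf9 membrane reagent for 1 hour at 4 °C and sorted by FACS into low and high (top ~1%) gates on anti-HA and streptavidin fluorescence. Polyreactivity labels come from the gate of origin.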

Sequence | polyreactivity (PSR sort gate)
QVQLVESGGGLVQAGGSLRLSCDASGSIFYDYAMGWYRQAPGKERELVAAITSDTTTNYADSVKGRFTISRDNAKNTVYLQMNSLKPEDTAVYYCNTPPQWLGRYITLTFDYWGQGTQVTVSS | low polyreactivity
QVQLVESGGGLVQAGGSLRLSCDASGSIFYRYAMGWYRQAPGKERELVASISSGVSTNYADSVKGRFTISRDNAKNTVYLQMNSLKPEDTAVYYCAAYYRGWSSSYWYPAYNYWGHGTQVTVSS | low polyreactivity
QVQLVESGGGLVQAGGSLRLSCDASGSIIISYDMGWYRQAPGKERELVAAIRSRVGSTYYSDSVKGRFTISRDNAKNTVYLQMNSLKPEDTAVYYCAADWVWADFDYWGQGTNVTVSS | low polyreactivity
QVQLVESGGGLVQAGGSLRLSCDASGSIISYYTMGWYRQAPWKERELVAAISLTGGSTYYADSVKGRFTISRDNAKNTVYLQMNSLKPEDTAVYYCIAVRYASPYGYWGQGTLVTVSS | high polyreactivity
QVQLVESGGGLVQAGGSLRLSCDASGSTFLTNTMGWYRQAPGKERELVAAISSGDSTYYADSVKGRFTISRDNAKNTVYLQLNSLKPEVTAVYYCARDGGWRNVPRDYWGQGTQVTVSS | low polyreactivity
QVQLVESGGGLVQAGGSLRLSCDASGSTFPVNAMGWYRQAPGKERELVAAISSRGSSTYYADSVKGRFTISRDNAKNTVYLQMNSLKPEDTAVYYCAAPQRYPRFYYWGQGTQVTVSS | high polyreactivity
QVQLVESGGGLVQAGGSLRLSCDASGSTFRANAMGWYRQAPGKERELVAAISWSGGRTYYADSVKGRFTISRDNAKNTVYLQMNSLKPEYTAVYYCAAPKLTSYDSWGQGTQVTVSS | high polyreactivity
QVQLVESGGGLVQAGGSLRLSCDASGSTFVGYTMGWYRQAPGKERELVAAITWRGGITYYADSVKGLFTISRDNAKNTVYLQMKSLKPEDTAVYYCAGARYRHGRSGTYDVTGEYWGQGTQVTVSS | high polyreactivity
QVQLVESGGGLVQAGGSLRLSCDASGSTFYPNAMGWYRQPPGKERELVAAITDSVCTTNYADSVKGRFTISRDNAKNTVYLQMNSLKPEDTAVYYCAKVKYYWNGYRYYYWGQGTQVTVSS | low polyreactivity
QVQLVESGGGLVQAGGSLRLSCDASGSTFYYNAMGWYRQAPGKERELVADISRGGSTYYADSVKGRFTISRDNAKNTVYLQMNSLKPEDTAVYDCAAQTYLLSQWWWFDIDYGYWGQGTQVTVSS | low polyreactivity
QVQLVESGGGLVQAGGSLRLSCDASGTLSPYAMGWYRQAPGKERELVAVITSNTGRTYADSVKGRFTISRYNSKNTVYLQKNTLNPQDTAFFYCYWGQGTQVTVTS | low polyreactivity
QVQLVESGGGLVQAGGSLRLSCEASGSTFLRNAMGWYRQAPGKKGSWVATISYAGDSTYYADSVKGRFTLSRDNAKNTVYLQMNSLKPEDTAVYYCAASYSLTFWDKDDYWGQGTQVTVSS | low polyreactivity
QVQLVESGGGLVQAGGSLRLSCGASGFIFVRYAMGWYRQAPGKERELVAAITKGGGRTYYADSVKGRFTISRDNAKNTVYLQMNSLKPEDTAVYYCATGGAHGRERDYGGQGTQVTVSS | high polyreactivity
QVQLVESGGGLVQAGGSLRLSCGASGFTFSGNVMGWYRQAPGKEREFVAAITSRGGSSYYADSVKGRFTISRDNAKNTVYLQMNSLKPEDTAVYYCNRRRWYFFSLDYWGQGTQVTVSS | high polyreactivity
QVQLVESGGGLVQAGGSLRLSCGASGLTFPLYAMGWYRQAPGKERELVAAITFSSGSTRYADSVKGRFTISRDNAKNTGSFQMNSLKPEDTALYYCAAVWYTYRTGPWYDYWGQGTQVTVSS | high polyreactivity
QVQLVESGGGLVQAGGSLRLSCGASGNTFYPNAMGWYRQAPGKERELVAAITTSGVTTYYADSVKGSFTISRDNAKNTVYLQINSLKPEDTAVYYCAAYWSRDKYYYWGQGTQVTVSS | low polyreactivity
QVQLVESGGGLVQAGGSLRLSCGASGRIFGRYAMGWYRQAPAKERELVAVITFSGGDTFYADSVKGRFTISRDNAKNTVYLQMNSLKPEDTAVYYCAKSQGFETYRNVSIFGYWGQGTQVTVSS | low polyreactivity
